According to article PMC10835923:

Legend:
[1] = biological target: CXC chemokine receptor 3 isoform A (CXCR3A) on transfected CHO cells (UniProt P49682)
[2] = biological target: CXCR3 on primary human T lymphocytes stimulated with PHA and IL-2 (human (endogenous in primary T lymphocytes)) (UniProt P49682)

CXCR3 internalization: mean MFI of surface CXCR3 on PHA- and IL-2-stimulated primary T lymphocytes, as % of medium-treated cells, after 45 nM (90.1%) or 90 nM (83.3%) for 10 min at 37 °C [2]: 90.1%
Substance: C-terminally truncated CXCL10(1-73) (from UniProt P02778 22-94) (ligand)
desensitization: reduction of the calcium increase to 3 nM CXCL10(1-77) in CXCR3A-transfected CHO cells when 45 nM (69.9%) or 90 nM (72.2%) CXCL10(1-73) was added 100 s before [1]: 72.2%
